Source: patent publication US20250320281A1

Assays:
Experiment in all cases: cell-based or functional assay
[1] = target: HIV-1 envelope glycoprotein (Env) of isolate MGRM-A-006, clade A (HIV-1)
[2] = target: HIV-1 envelope glycoprotein (Env) of isolate MGRM-A-004, clade A (HIV-1)
[3] = target: HIV-1 Env of pseudovirus MGRM-G-017 (HIV-1, clade G isolate MGRM-G-017)
[4] = target: HIV-1 envelope glycoprotein (Env) of isolate 93UG077, clade A (HIV-1)
[5] = target: HIV-1 IAVI-C3 envelope glycoprotein (Env) on pseudovirus (HIV-1)
[6] = target: HIV-1 92UG005 envelope glycoprotein (Env) on pseudovirus (HIV-1)
[7] = target: HIV-1 Env of pseudovirus MGRM-AG-001 (clade CRF_AG) (HIV-1)
[8] = target: HIV-1 CMU02 envelope glycoprotein (Env) on pseudovirus (HIV-1)
[9] = target: HIV-1 Env of pseudovirus JRFL (HIV-1)
[10] = target: HIV-1 Env of isolate LAVI_C3 (HIV-1)
[11] = target: HIV-1 Env of isolate MGRM-D-008 (clade D pseudovirus) (HIV-1)
[12] = target: HIV-1 Env of pseudovirus MGRM-AG-002 (clade CRF_AG) (HIV-1)
[13] = target: HIV-1 Env of pseudovirus MGRM-G-025 (HIV-1, clade G isolate MGRM-G-025)
[14] = target: HIV-1 Env of pseudovirus MGRM-F1-012 (HIV-1)
[15] = target: HIV-1 Env of pseudovirus isolate MGRM-G-028 (HIV-1)
[16] = target: HIV-1 MGRM-A-010 Env (pseudovirus, clade A) (HIV-1)
[17] = target: HIV-1 Env of isolate MGRM-F1-018 (HIV-1)
[18] = target: HIV-1 Env of isolate MGRM-D-008 (pseudovirus) (HIV-1)
[19] = target: HIV-1 Env of isolate MGRM-AG-002 (HIV-1)
[20] = target: HIV-1 Env of isolate MGRM-F1-008 (pseudovirus) (HIV-1)
[21] = target: HIV-1 Env of isolate MGRM-Chronic-B-004 (subtype B pseudovirus) (HIV-1)
[22] = target: HIV-1 Env of isolate MGRM-D-005 (pseudovirus) (HIV-1)
[23] = target: HIV-1 Env of isolate MGRM-F1-004 (pseudovirus) (HIV-1)
[24] = target: HIV-1 Env of isolate MGRM-D-028 (pseudovirus) (HIV-1)
[25] = target: HIV-1 Env of isolate 98CN006 (pseudovirus) (HIV-1)
[26] = target: HIV-1 Env of isolate JR-CSF (subtype B pseudovirus) (HIV-1) (UniProt P20871)
[27] = target: HIV-1 APV17 Env (pseudovirus) (HIV-1)
[28] = target: HIV-1 Env of isolate MGRM-Chronic-B-011 (subtype B pseudovirus) (HIV-1)
[29] = target: HIV-1 Env of isolate MGRM-AE-005 (HIV-1)
[30] = target: HIV-1 Env of isolate SF162 (subtype B pseudovirus) (HIV-1) (UniProt P19550)

Chain of 1443_C16 (PG16) (TCN-116) (antibody) (VH): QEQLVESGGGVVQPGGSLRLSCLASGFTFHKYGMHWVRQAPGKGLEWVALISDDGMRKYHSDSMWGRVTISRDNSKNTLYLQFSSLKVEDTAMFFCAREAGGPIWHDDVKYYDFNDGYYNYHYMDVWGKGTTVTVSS
Chain of 1443_C16 (PG16) (TCN-116) (antibody) (VL): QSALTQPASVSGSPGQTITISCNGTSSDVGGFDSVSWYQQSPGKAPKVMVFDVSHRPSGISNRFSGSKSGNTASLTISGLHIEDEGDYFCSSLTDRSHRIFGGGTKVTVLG

| Substance | IC50 (µg/ml), pseudovirus neutralization [1] [µg/mL] | IC50 (µg/ml), pseudovirus neutralization [2] [µg/mL] | IC50 (µg/ml), pseudovirus neutralization [3] [µg/mL] | IC50 (µg/ml), pseudovirus neutralization [4] [µg/mL] | IC50, pseudovirus neutralization [5] [µg/mL] | IC50, pseudovirus neutralization [6] [µg/mL] | IC50 [7] [µg/mL] | IC50, pseudovirus neutralization [8] [µg/mL] | IC50 (µg/ml), pseudovirus neutralization [9] [µg/mL] | IC50 [10] [µg/mL] | IC50 (µg/ml), pseudovirus neutralization [11] [µg/mL] | IC50 [12] [µg/mL] | IC50 (µg/ml), pseudovirus neutralization [13] [µg/mL] | IC50 (µg/ml), pseudovirus neutralization [14] [µg/mL] | IC50 (µg/mL), pseudovirus neutralization [15] [µg/mL] | IC50 neutralization [16] [µg/mL] | IC50 (µg/mL), pseudovirus neutralization [17] [µg/mL] | IC50, pseudovirus neutralization [18] [µg/mL] | IC50 [19] [µg/mL] | IC50, pseudovirus neutralization [20] [µg/mL] | also measured |
| --- | --- | --- | --- | --- | --- | --- | --- | --- | --- | --- | --- | --- | --- | --- | --- | --- | --- | --- | --- | --- | --- |
| 2F5 (antibody) | 15.7 | 7.49 | 0.6 | 3.3 | > 50 | 11.8 | 0.75 | 0.38 | 3.54 | > 50 | > 50 | 0.54 | > 50 | > 50 | – | – | – | – | – | – | – |
| 2G12 (antibody) | 13.8 | > 50 | > 50 | > 50 | > 50 | > 50 | 0.69 | > 50 | 1.45 | > 50 | > 50 | 0.54 | 31.9 | 1.81 | – | – | – | – | – | – | – |
| 4E10 (antibody) | 9.87 | 3.14 | 1.14 | 10.6 | 5 | 8.86 | 1.12 | 0.59 | 18.9 | 2.85 | 42.9 | 0.8 | 1.7 | 0.37 | – | – | – | – | – | – | – |
| 1443_C16 (PG16) (TCN-116) (antibody) | > 50 | 0.04 | 0.02 | > 50 | 14.8 | > 50 | 0.03 | > 50 | > 50 | 9.55 | > 50 | 0.03 | > 50 | 0.003 | – | – | – | – | – | – | – |
| 1495_C14 (PGC14) (antibody) | > 50 | > 50 | > 50 | > 50 | > 50 | > 50 | > 50 | > 50 | > 50 | 12 | > 50 | > 50 | > 50 | > 50 | – | – | – | – | – | – | – |
| 4858_P08 (PGT-123) (antibody) | – | – | – | – | – | – | – | – | – | – | – | – | – | – | 0.008 | 0.492 | 0.054 | > 50 | > 50 | > 50 | neutralization IC50 [6]: 2.49 µg/mL; neutralization IC80 [6]: > 10 µg/mL; neutralization IC90 [6]: > 10 µg/mL; neutralization IC95 [6]: > 10 µg/mL; IC50 (µg/mL), pseudovirus neutralization [21]: 0.008 µg/mL; neutralization IC50 [8]: > 10 µg/mL; neutralization IC80 [8]: > 10 µg/mL; neutralization IC90 [8]: > 10 µg/mL; neutralization IC95 [8]: > 10 µg/mL; IC50, pseudovirus neutralization [22]: > 50 µg/mL; IC50, pseudovirus neutralization [23]: 1.78 µg/mL; IC50, pseudovirus neutralization [24]: 0.132 µg/mL; IC50, pseudovirus neutralization [25]: 0.008 µg/mL; IC50 (µg/mL), pseudovirus neutralization [26]: 0.046 µg/mL; neutralization IC50 (pseudovirus) [27]: 0.18 µg/mL; IC50 (µg/mL), pseudovirus neutralization [28]: > 50 µg/mL; IC50 [29]: > 50 µg/mL; IC50 (µg/mL), pseudovirus neutralization [30]: 0.005 µg/mL |
| 4877_D15 (PGT-122) (antibody) | – | – | – | – | – | – | – | – | – | – | – | – | – | – | 0.01 | 1.68 | 0.563 | > 50 | > 50 | > 50 | IC50 (µg/mL), pseudovirus neutralization [21]: 0.008 µg/mL; IC50, pseudovirus neutralization [22]: > 50 µg/mL; IC50, pseudovirus neutralization [23]: 1.29 µg/mL; IC50, pseudovirus neutralization [24]: 3.34 µg/mL; IC50, pseudovirus neutralization [25]: 0.021 µg/mL; IC50 (µg/mL), pseudovirus neutralization [26]: 0.057 µg/mL; neutralization IC50 (pseudovirus) [27]: 0.522 µg/mL; IC50 (µg/mL), pseudovirus neutralization [28]: > 50 µg/mL; IC50 [29]: > 50 µg/mL; IC50 (µg/mL), pseudovirus neutralization [30]: 0.009 µg/mL |
| 5123_A06 (PGT-125) (antibody) | – | – | – | – | – | – | – | – | – | – | – | – | – | – | 0.012 | 0.0055 | > 50 | > 50 | > 50 | 0.361 | IC50 (µg/mL), pseudovirus neutralization [21]: 0.007 µg/mL; IC50, pseudovirus neutralization [22]: > 50 µg/mL; IC50, pseudovirus neutralization [23]: > 50 µg/mL; IC50, pseudovirus neutralization [24]: > 50 µg/mL; IC50, pseudovirus neutralization [25]: 0.201 µg/mL; IC50 (µg/mL), pseudovirus neutralization [26]: 0.004 µg/mL; neutralization IC50 (pseudovirus) [27]: 7.31 µg/mL; IC50 (µg/mL), pseudovirus neutralization [28]: 3.23 µg/mL; IC50 [29]: 0.01 µg/mL; IC50 (µg/mL), pseudovirus neutralization [30]: 0.004 µg/mL |
| 5141_B17 (PGT-126) (antibody) | – | – | – | – | – | 0.0181 | – | > 10 | – | – | – | – | – | – | 0.012 | 0.0033 | 14.9 | 43.1 | > 50 | > 50 | IC80 (pseudovirus neutralization) [6]: 0.145 µg/mL; IC90 (pseudovirus neutralization) [6]: 0.553 µg/mL; IC95 (pseudovirus neutralization) [6]: 2.45 µg/mL; IC50 (µg/mL), pseudovirus neutralization [21]: 0.01 µg/mL; IC80 (pseudovirus neutralization) [8]: > 10 µg/mL; IC90 (pseudovirus neutralization) [8]: > 10 µg/mL; IC95 (pseudovirus neutralization) [8]: > 10 µg/mL; IC50, pseudovirus neutralization [22]: 0.792 µg/mL; IC50, pseudovirus neutralization [23]: 0.063 µg/mL; IC50, pseudovirus neutralization [24]: > 50 µg/mL; IC50, pseudovirus neutralization [25]: 0.046 µg/mL; IC50 (µg/mL), pseudovirus neutralization [26]: 0.008 µg/mL; neutralization IC50 (pseudovirus) [27]: 0.501 µg/mL; IC50 (µg/mL), pseudovirus neutralization [28]: 0.108 µg/mL; IC50 [29]: 0.324 µg/mL; IC50 (µg/mL), pseudovirus neutralization [30]: 0.003 µg/mL |
| b12 (antibody) | 13.6 | > 50 | > 50 | 47 | 5 | > 50 | 11.9 | 4.25 | 0.02 | 0.94 | > 50 | 0.89 | > 50 | > 50 | – | – | – | – | – | – | – |
